Measured values from PMC3203581.
Read-outs that look alike come from different tables or passages of the source.

T1: tvMyb2 40-156 (Trichomonas vaginalis, UniProt Q58HP3 40-156)
T1 sequence: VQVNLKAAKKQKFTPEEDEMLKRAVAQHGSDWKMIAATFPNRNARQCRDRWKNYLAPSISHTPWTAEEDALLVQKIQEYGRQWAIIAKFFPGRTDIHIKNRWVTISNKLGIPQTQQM

B1: MRE-1-12 (dsDNA)
DNA 1: ATAACGATATTT
DNA 2: AAATATCGTTAT
B2: MRE-2-13 (dsDNA)
DNA 1: CTGTATCGTCTTG
DNA 2: CAAGACGATACAG

Legend:
tvMyb2 40-156 [1] = biological target: T1, tvMyb2 40-156; assay: X-ray crystallography
tvMyb2 40-156 [2] = biological target: T1, tvMyb2 40-156; assay: X-ray crystallography; remark: listed apart in the source

Binder	binding result (tvMyb2 40-156 [1])	binding result (tvMyb2 40-156 [2])
B1	binds	
B2		binds
